In publication PMC5718613 one finds β-galactosidase activity (two-hybrid signal) data, which are given here for one substance.

This test addresses S. aureus flotillin (FloA), fused to T25 or T18 fragments of an adenylate cyclase (S. aureus). Briefly: two-hybrid; bacterial two-hybrid in E. coli BTH101; FloA and T7SS membrane proteins fused C- and N-terminally with T18 and T25 fragments of adenylate cyclase; X-Gal plates (48 h, 30°C) and β-galactosidase activity in Miller Units; a 700 Miller Unit threshold defines positive and negative signals.

Chain of S. aureus flotillin (FloA), fused to T25 or T18 fragments of an adenylate cyclase (S. aureus) (A6QHB6 whole entry, the tested form may be a part): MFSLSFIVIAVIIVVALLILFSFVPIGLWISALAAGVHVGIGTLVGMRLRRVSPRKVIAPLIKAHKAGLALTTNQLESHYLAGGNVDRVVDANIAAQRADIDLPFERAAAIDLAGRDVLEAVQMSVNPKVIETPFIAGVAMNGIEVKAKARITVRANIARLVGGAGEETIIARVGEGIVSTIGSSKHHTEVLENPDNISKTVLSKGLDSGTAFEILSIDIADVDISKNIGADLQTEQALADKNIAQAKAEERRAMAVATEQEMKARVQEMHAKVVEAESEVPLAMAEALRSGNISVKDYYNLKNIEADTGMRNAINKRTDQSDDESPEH

Substance “EssB, fused to T25 or T18 fragments of an adenylate cyclase (from UniProt Q2G185 1-444) (natural protein)” displayed a β-galactosidase activity (two-hybrid signal) above 2000 Miller Units.
